# Assay: soluble on expression in E. coli; label from the status in PepcDB or PDB records
row,Sequence,soluble on expression in E. coli
1,SYMERMDKRALISFWESVEHLKNANKNEIPQLVGEIYQNFFVESKEISVEKSLYKEIQQCLVGNKGIEVFYKIQEDVYETLKDRYYPSFIVSDLYEKLLIKEEEKHASQMISNKDEMGPRDEAGEEAVDDGTNQINEQASFAVNKLRELNEKLEYKRQALNSIQNAPKPDKKIVSKLKDEIILIEKERTDLQLHMARTDWWCENLGMWKASITSGEVTEENGEQLPCYFVMVSLQEVGGVETKNWTVPRRLSEFQNLHRKLSECVPSLKKVQLPSLSKLPFKSIDQKFMEKSKNQLNKFLQEETEEDSDLSDYGDDVDGRKDALAEPCFMLIGEIFELRGMFKWVRRTLIALVQVTFGRTINKQIRDTVSWIFSEQMLVYYINIFRDAFWPNGKLAPPTTIRSKEQSQETKQRAQQKLLENIPDMLQSLVGQQNARHGIIKIFNALQETRANKHLLYALMELLLIELCPELRVHLDQLKAGQV,soluble
2,MTIALELQQLKKTYPGGVQALRGIDLQVEAGDFYALLGPNGAGKSTTIGIISSLVNKTSGRVSVFGYDLEKDVVNAKRQLGLVPQEFNFNPFETVQQIVVNQAGYYGVERKEAYIRSEKYLKQLDLWGKRNERARMLSGGMKRRLMIARALMHEPKLLILDEPTAGVDIELRRSMWGFLKDLNDKGTTIILTTHYLEEAEMLCRNIGIIQHGELVENTSMKALLAKLKSETFILDLAPKSPLPKLDGYQYRLVDTATLEVEVLREQGINSVFTQLSEQGIQVLSMRNKANRLEELFVSLVNEKQGDRA,not soluble
3,MACQTGIRANAALRNALNLGKQAKLRLIKIVVNNEEMTPNYEFAGTANWRDDWRACLPDCVDAYEPCFILFRLNTITEWVLITFVDDRAPVREKMLLAATCATFKSEFGQCYIEHEKHVTDLKDLTLNAFEAWLKAKTELGPMSEVERELHNAQQERAAIAHAGPQHMKGVAFPVDRNAEEALRQLASQKLSFVQLSVDTLNEAIKLEGTLESLEPSQLASKVPRDKPRYTFYNFDHTWEGVPQQCTLFIYSLPSSGSSIKERMLYSSCKGPFLSAAQNQYGVVITNKMEVDARDDLSEKALLEVIHPLPVEAPKQFSRPAPPRAGPRRITKV,not soluble
4,ATDATSLATDKDKLSYSIGADLGKNFKNQGIDVNPEAMAKGMQDAMSGAQLALTEQQMKDVLNKFQKDLMAKRTAEFNKKADENKVKGEAFLTENKNKPGVVVLPSGLQYKVINSGNGVKPGKSDTVTVEYTGRLIDGTVFDSTEKTGKPATFQVSQVIPGWTEALQLMPAGSTWEIYVPSGLAYGPRSVGGPIGPNETLIFKIHLISVKKSS,soluble
5,MGSDKIHHHHHHMNKEAIESLLIHVIGTDVIVNEVRPIGGGNTSRAFAVKSSQGNFFIKTNRAGLVDMFEKEVKNLELLRKVLPSNTPEVVGYGTIDHVSYFILKLIEPGRRVADFWSDFGRTLSELHRVTGNTFGLEYDNYIGSLPQSNKQNSNWVDFFVNERIWPQAKKAEKVLGTEIVGMISKLSDRLPDLLTQSRPTLLHGDLWSGNFTLNQAGTVCLVDPATYYGNREIEIAFTKLFGGFEDEFYAAYSEVLPLDKGFFDTRADIYNLYPLLVHVNLFGGWYVASVRETLKRFV,not soluble
6,MSLARQNYHSEVEAAVNKQINIELYASYVYLSMSFYFDRDDVALPNIAKFFKEQSDEEREHATELMRVQNLRGGRVVLQDIQKPENDEWGTALKAFEAALALEKFNNESLLKLHSTAGNHNDAHLTDFIEEKYLDEQVKSINEFARMVANLKRVGPGVGEYVFDKEHFSD,soluble
7,MHPDQKKTFKEKNDIRKKLFNSTKEERLDWRKMKDEKKRKNEEKIIKEAEEAKKAKIEKVDHTPPFTISIAVPGQFLNNAQSAELRTYMAGQIARAATLYRVDEIIIYDESCRMTDEAVNAYYNGTWQGNLIPAETNYEGCFYLAKILEYLECPQYLRKDLFPIQKPLKNAGLLNPLDAQHHLKYDEKTLRFREGVVLKKRSKDGRGPICNIGLEKEFEIDSDAVQLPPYTRVTVEIKNLTEQCKLYRGSITSGATVTRETGLYWGYSVRLMTGLQKVLQAKKFDIVAGVSPRGKLASQMDVCILNKPKILLVFGGVAGVDAAVESEELAEWRRAEDAFDVLIRTTSLSNGSRSERVEENVLSVLAQVQCHLETLNAL,not soluble
8,MEFRKEVEVAKILVGGKVEENVVEIRYDPLTLQTSRILKKTIPMQSGDFQEEIDSTRSWCPFCPERIEQMVSRDPEIMEGELWKRGEAVLFSNLTPYSKYSLVLRLTEEHYVPVSEFKSQHFFDAFKLIQEYVKKVPEGKYYVTIGMNYLKPSGSSIMHPHIQVMISEVSTDYFARLDWSALEFKESNGVDYWKKLAEVEKGGERYIGSTDKTEWVAAFAPKGFFHFTGIPEEREFMQMSDEQLKGIAEGIAKILRYYGRKNLNAFNFSMFCADRIGDHFRTNINIVARTPFAKYYWCDVFYPKMFHDESVVFFVPEEYAKEIREIWSEL,not soluble
9,MGSDKIHHHHHHMSLASFNPRVARLATPPIPSVFGWGRAYDAAAGPLIDLSQAAPGHPPHADLLAWLAQAAGSAEACGYGAIEGELVLRRAYCTHLSELYGAAFTPEQIHITAGANQAFICAAMALAGAGERIALTDPFYFNHDTTLAMLGIETVALPCDSDNGFLPDLDRAEQVVKSGIKALALVTPNNPTGAVYPKELLADLYRLCRAHGVWLIVDETYRDFLNPEFGRPHELFSQPDWPEGLIQIYSFSKSFAIPGHRLAAICAGGPVVEQIAKIMDNLQICAPRAAQIALAKALPVLDGWRAENAAEIARRTVALRRAFDLVPQWHLASIGAYFAFARHPFGQAASIDVAEQLARRAGILAVPGGFFGSRQEGYLRLAFANVDCPTIETLPDRLRTFTLAG,not soluble
10,MGHHHHHHSHMEWKVKVRSDGTRYVAKRPVRDRLLKARALKIREERSGMTTDDDAVSEMKMGRYWSKEERKQHLIRAREQRKRREFMMQSRLECLREQQNGDSKPELNIIALSHRKTMKKRNKKILDNWITIQEMLAHGARSADGKRVYNPLLSVTTV,not soluble
11,MIIKGRAHKFGDDVDTDAIIPGPYLRTTDPYELASHCMAGIDENFPKKVKEGDVIVAGENFGCGSSREQAVIAIKYCGIKAVIAKSFARIFYRNAINVGLIPIIANTDEIKDGDIVEIDLDKEEIVITNKNKTIKCETPKGLEREILAAGGLVNYLKKRKLIQSKKGVKT,soluble
12,MSVRIEDHAMLGNCHSAALVDHRGTIGWLCLPRFDSDAVFAALLGDQQHGQWALSPAADFRTERAYQDDSLVLCTRMITDSGTVELIDFMVASENGEVHQHLVRIVRCVQGSVPMHMRLTFRFNYGRTLEHHHHHH,soluble
13,MGSRENLYFQGLEHHHHHHHMKNVKTLIAAAILSSMSFASFAAVEVQSTPEGQQKVGTISANAGTNLGSLEEQLAQKADEMGAKSFRITSVTGPNTLHGTAVIYK,soluble
14,MSKELFLEIGTEEIPAGFLPKAMADMEAIVTKELENARLAFGEVKTFATPRRLALVVKGLPTVQPDAEITALGPARNIAFGPDGTPSKAAEGFARGQGVDVASLTLVSTEKGEYVAAVRKESGRPVPDLLAEILPRLVGGIPFRKSMRWADLDVRFARPIHWIVALFDGVVVPFAFGNVQSGNVSRGHRFMANQPFPVRDFAHYLDECERHFVIPDPERRKETIRREIHRVAKTAGGHLLPDEGLLDEVAYLVEYPSVVHGTFSPDFLKVPREVLITSMRSHQRYFSIVDDAGKLMPGFITINNTLTEDPSVVVKGNERVLRARLSDARFFFEEDQKVKLETRVESLKNVVYQQKLGTSYEKMERFRALAEGLADLLNPAVKAKTSRAAFLCKADLVSGMVGEFPEVQGIMGREYALLQGEDAEVAAAIAEHYLPTQAGGDLPASDIGAFVSIADKLDTICGCFGVGLIPTGSADPYALRRSALGIINIILDRGCRLSLEGEIGKALELLSAKLTRPAAEVMADVLEFFRGRFVNLMADRYPADAVDAAIAAGFDD,not soluble
15,MGSDKIHHHHHHMLDSLFPIKRNYLDRNGHKLQYVNEGQGEPVVMVHGNPSWSFYYRNLVTALSPNHQCIVPDHIGCGLSDKPDDAGYDYTLKNRIDDLEALLDHLEVKEKITLIVHDWGGMIGMGYAARHPERIKKIVVLNTGAFHLPEAKPFPWALWICRNTLLGTVLVRGFNAFSSIASYVGVKRAPMPKAIREAYVAPFNSWANRISTLRFVQDIPLKPGDRNYELVSEISEKLNQFNQLPMMICWGLKDFVFDKHFLDEWKRRFPEAEVHEFADCGHYILEDASDEVVAQVQQFMAR,not soluble
16,HMARSLYPLGVSRSLPPYRRTFNHQTFIFVKSILRLGVSMEEEEFDIREALANGEHLEKILIMAKYDESVLKKLIELLDDDLWTVVKNAISIIMVIAKTREDLYEPMLKKLFSLLKKSEAIPLTQEIAKAFGQMAKEKPELVKSMIPVLFANYRIGDEKTKINVSYALEEIAKANPMLMASIVRDFMSMLSSKNREDKLTALNFIEAMGENSFKYVNPFLPRIINLLHDGDEIVRASAVEALVHLATLNDKLRKVVIKRLEELNDTSSLVNKTVKEGISRLLLLEGHSSS,soluble
17,MSGRSVRAETRSRAKDDIKKVMAATERVRRWEKKWVTVGDTSLRIFKWVPVTETKQIYKPKGAGPAVRELKGFPTDVVLENARSVLLDFQDDNSNQSFLSDAYQSNTKVDSSSNSSPQHVSEAVSPSHPPYYRTEDSQPPTLGQESMEAEREASTTSSEVTDEPPTLIKEDVLSLSTQEEEEAIGAPPLKRVCTEHNSTVS,not soluble
18,MSLEALLSEDVKIIASALKAAIDKDRKSTSKREAETGIRYYNHENDIMNNRIFYVDDEGVLREDKYASNVRIPHGFFPEIVDQKTQYLLSNPVEYETENEELKEYLAEYYNSEFQVVLQELVEGSSQKGFEYVYARTNAEDRLCFQVADSLNVFGVYNEYNELQRICRHYITEIEKDGETVDIHHAEVWTDQNVYFFVAEDNKDYELDEAEPINPRPHVLAVDSDNESLLQRSYGQIPFYRLSNNKQETTDLKSIKALIDDYDLMNCFLSNNLQDFAEAIYVVSGFQGDDLSKLRQNVKSKKVVGTGSDGGLDVKTVTIPTEGRKTKMEIDKENIYKFGMAFDSTQVGDGNITNIVIKARYTLLNMKANKTEARLRALLEWMNKLVIDDINRRYTKAFDPTEVSFTFTREVMVNETDIVNNEKTEAETRKIILESILQVAPRLDDDNVLRLICEQFDLDWEDVKEALEEAEYTQGLTDNTDEEETAVTPNVPTQQMAEGATGSTESQLPGEGHHHHHH,not soluble
19,MGSDKIHHHHHHMKNDKNLLQHFSREEREFVEKIMDMCQQVEDTYSYRLTHFLHPRQDEIVCKIANYYQLQTFSSRDLVSTEHSRVIIAPTYYELDIKHFELTALHLSYARKFHTLSHSQVLGTFLNQLGIKREYLGDILIDDERLIVFIDQKFGQIALQSITKVARVPVKGKEEEWTTVRLPIGQEWRSKDVLVSSMRLDKLISVAFNLSRATANKLIEAGHVKLDYVLTEQTSKLVEIGQLISVRRYGRVRLNEFLGFSKQGKIKLKLDIVKT,not soluble
20,MGSDKIHHHHHHMMDTVKNRRTIRKYQQKDITPDLLNDLLETSFRASTMGGMQLYSVVVTRDAEKKEILSPAHFNQPMVKEAPVVLTFCADFRRFCKYCQERNAVPGYGNLMSFLNAAMDTLLVAQTFCTLAEEAGLGICYLGTTTYNPQMIIDALHLPELVFPITTVTVGYPAESPKQVDRLPIEGIIHEESYHDYTAEDINRLYAYKESLPENKLFIEENQKETLPQVFTDVRYTKKDNEFMSENLLKVLRRQGFMD,not soluble
